Patent publication US20220195071A1 (TORQUE THERAPEUTICS, published 2022)

Target: T1, mouse CD8 (mouse, UniProt P01731 28-247; P10300 22-213)
T1 construct: whole, on cells
Assay: flow cytometry of blood 1 hr after i.v. injection (2 µg/mouse); kappa+ IL-15+ cells

T1 sequence (P01731 28-247, chain 1 of 2): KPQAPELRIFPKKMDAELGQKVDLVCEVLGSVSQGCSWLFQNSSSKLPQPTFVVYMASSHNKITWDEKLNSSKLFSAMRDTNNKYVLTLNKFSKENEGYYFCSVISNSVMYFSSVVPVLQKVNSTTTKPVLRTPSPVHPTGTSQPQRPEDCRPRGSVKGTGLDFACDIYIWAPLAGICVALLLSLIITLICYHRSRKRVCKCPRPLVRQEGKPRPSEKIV
T1 sequence (P10300 22-213, chain 2 of 2): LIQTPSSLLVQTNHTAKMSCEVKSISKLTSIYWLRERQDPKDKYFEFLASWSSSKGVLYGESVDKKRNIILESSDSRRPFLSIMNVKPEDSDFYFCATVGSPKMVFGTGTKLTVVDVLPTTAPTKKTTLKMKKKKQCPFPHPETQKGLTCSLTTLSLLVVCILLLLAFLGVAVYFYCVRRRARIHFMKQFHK

B1: chY169Fab-M1scFv-IL15/sushi (bispecific antibody)
chain 1: EVKLQESGGGLVQPGRSLKLSCAASGFNFNDYWMGWVRQAPGKGLEWIGEINKDSSTINYTPSLKDKFTISRDNAQNTLYLQMSKLGSEDTAIYYCARARGMMVLIIPHYFDYWGQGVMVTVSSASTKGPSVFPLAPSSKSTSGGTAALGCLVKDYFPEPVTVSWNSGALTSGVHTFPAVLQSSGLYSLSSVVTVPSSSLGTQTYICNVNHKPSNTKVDKKVEPKSCGGGGSGGGGSGGGGSQVNLLQSGAALVKPGASVKLSCKASGYTFTDYYIHWVKQSHGKSLEWVAYINPDRDYTNYNEKFKSKATLTVDKSTNTAYMELSRLTSEDSATFYCTRRLYDGAYYYSWFAYWGQGTLVTVSSGGGGSGGGGSGGGGSGGGGSDIQMTQSPHSLSASLGETVSIECLASEGISNYLAWYQQKPGKSPQLLIYYGSRLQDGVPSRFSGSGSGTQYSLRITNMQPEDEGVYYCQQGYKYPYTFGAGTKLELK
chain 2: not shown
chain 3: ITCPPPMSVEHADIWVKSYSLYSRERYICNSGFKRKAGTSSLTECVLNKATNVAHWTTPSLKCIR
With B1 the “fold higher concentration of circulating tethered-fusion positive cells against vehicle control and chM1Fab-IL15/sushi” value was over 10 fold.
